Measurements as given in patent publication US20240384250A1, “FIBROBLAST GROWTH FACTOR 23 MODULATING COMPOUNDS” (THE UAB RESEARCH FOUNDATION, priority 2021, published 2024).

T1: FGF8b binding to FGFR1c (Homo sapiens, UniProt P11362)
T1 construct: a chimeric protein consisting of the FGFR1 ectodomain and the Fc region of a human IgG; purchased R&D Systems 423-F8/CF; 658FR050
T1 sequence (P11362 22-376 limits assumed): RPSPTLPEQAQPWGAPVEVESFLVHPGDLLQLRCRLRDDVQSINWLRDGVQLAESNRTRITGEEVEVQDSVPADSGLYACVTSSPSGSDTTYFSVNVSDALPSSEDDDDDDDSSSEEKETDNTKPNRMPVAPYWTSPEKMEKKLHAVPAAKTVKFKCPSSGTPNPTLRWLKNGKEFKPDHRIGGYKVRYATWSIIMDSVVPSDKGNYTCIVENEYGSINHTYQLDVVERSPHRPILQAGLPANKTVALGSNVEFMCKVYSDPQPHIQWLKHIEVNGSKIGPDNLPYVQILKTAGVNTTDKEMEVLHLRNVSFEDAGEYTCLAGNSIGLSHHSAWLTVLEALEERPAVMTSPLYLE


Key:
[1] = test system: adult rat ventricular myocytes (ARVMs); assay: Calcium transients and cell shortening in adult rat ventricular myocytes; assay type: cell-based
Method: As done before,^69 adult male Wistar rats (150-200 g) were killed and hearts were quickly removed and cannulated via the ascending aorta on a Langendorff system where they were retrograde perfused and digested by type II collagenase. Hearts were perfused with calcium-free Tyrode's solution supplemented with 0.2 mmol/L of ethyleneglycol-bis-((3-aminoethylether)-N,N, N′,N′-tetraacetic acid for 3 minutes. For the digestion, hearts were perfused with Tyrode's solution containing 0.1 mmol/L of CaCl2), 1 mg/ml of type II collagenase (Worthington), and 1 mg/ml of BSA for 3 to 4 minutes at room temperature. Cells were resuspended in Tyrode's solution containing 1 mmol/L of CaCl2). Tyrode's solution contains 130 mM NaCl, 5.4 mM KCl, 0.4 mM NaH2PO4, 0.5 mM MgCl2, 25 mM N-2-hydroxyethylpiperazine-N-2-ethanesulfonic acid, and 22 mM glucose. Adult rat ventricular myocytes (ARVMs) were loaded with the fluorescent Ca^2+ dye Fluo-3 AM (Thermo Fisher Scientific) for cytosolic Ca^2+ measurements. […] Cytosolic Ca^2+ transients were recorded under 1 Hz of field stimulation using 2 parallel platinum electrodes. […] Cell contraction was stimulated as the difference in cell length between rest and contraction (during electrical stimulation), expressed as a percentage of shortening of the cell length. […]

male BALB/c mice = assay: Serial FGF23 and heparin injections in mice, echocardiography and heart weight; assay type: in vivo, mouse; conditions: heparin 125 USP/kg and/or FGF23 40 μg/kg
Method: FGF23 injections were administered following a similar protocol established previously. 13,72,73 Briefly, 12-week-old male BALB/c mice (The Jackson Laboratory) underwent tail vein injections. The day before the experiment, mice underwent echocardiographic analysis, as described below. Mice were anesthetized in 2.5% isoflurane and placed on a heat pad. Each group consisted of 5 mice, and different groups were injected with isotonic saline, heparin, FGF23, or FGF23 and heparin combined. Per injection, 40 μg/kg of FGF23 and 125, 62.5, or 12.5 USP/kg of heparin dissolved in 200 μl of isotonic saline were used, with 8 hours were used between injections for a total of 5 consecutive days. All injections were performed via the lateral tail vein. On the morning of the sixth day, 16 hours after the final tail vein injection, animals underwent echocardiographic analysis and were killed. Middle sections of hearts were cut along the short axis and stored overnight in 4% phosphate-buffered formaldehyde solution. Sections were sent to IDEXX Laboratories for embedding, hematoxylin and eosin (H&E) staining, and sectioning. Sections for wheat germ agglutinin (WGA) labeling were not stained by IDEXX Laboratories.
Echocardiographic analysis was performed on day 6 of the experiment for FGF23-injected mice by using the Vevo 770 or Vevo 3100 imaging system (FUJIFILM VisualSonics). Animals were anesthetized with 1.5% isoflurane, and normal body temperature was maintained using a rectal probe for temperature monitoring. For analysis, both B- and M-mode images were obtained in the short- and long-axis views. Correct positioning of the transducer was ensured using B-mode imaging in the long-axis view before switching to the short-axis view. Image analysis was performed using Vevo 770 Workstation and Vevo LAB software (FUJIFILM VisualSonics).

FGF8b binding to FGFR1c = target: T1, FGF8b binding to FGFR1c; assay: Plate-based binding of paracrine FGF to Fc-FGFR1c with heparin and/or sKL; conditions: Fc-FGFR1c preincubated with 400 ng FLAG-sKL
Method: (§1) Proteins were coated on 96-well plates (MaxiSorp; 439454, Thermo Fisher Scientific), and proteins were added to wells in 100 μl of enzyme-linked immunosorbent assay (ELISA) coating buffer (E107, Bethyl Laboratories) with a lid placed overtop and incubated at 4° C. overnight. Plates were washed 5× with 350 μl of assay buffer (50 mM Tris [pH 7.4], 200 mM NaCl, 0.01% Tween 20) on a 50 TS microplate washer (BioTek). Plates were blocked for 1 hour in 200 μl of assay buffer with 0.5% BSA. Plates were washed as before, and proteins were incubated on plates in 100 μl of assay buffer with 0.5% BSA. Proteins or heparin was incubated in orders described in the respective figure legends. Assays using FLAG-tag-based detection were incubated with anti-FLAG coupled to HRP at 1:20,000, and assays using Fc detection were incubated with anti-human Fc coupled to HRP at 1:10,000. Plates were washed as above, and 100 μl of 3,3′,5,5′-tetramethylbenzidine (TMB) substrate (E102, Bethyl Laboratories) was added for 15 to 20 minutes until positive wells developed a dark blue color. Reactions were stopped with ELISA stop solution (E115, Bethyl Laboratories) and analyzed using the Synergy HI plate reader (BioTek) at 450 nm wavelength. […] As a control to remove background absorbance values, wells were coated with an equal amount of BSA to match the amount of protein coated in experimental wells and treated the same as experimental wells. To study the effects of sKL on the binding between paracrine FGFs and FGFRs, plates were run as above except coated with paracrine FGFs. Fc-FGFR1 was preincubated with sKL or vehicle for 60 minutes, and then the combination was added to wells and the assay was run as before.

[2] = test system: FGF1, FGF2, FGF7, FGF19, FGF21; assay: Plate-based binding assay, other FGF isoforms coated, FLAG-sKL detected with anti-FLAG HRP; design: species or system human; conditions: 10 ng FGF coated, 40 ng FLAG-sKL
Method: as §1, with “Plates were washed as above, and 100 μl of 3,3′,5,5′-tetramethylbenzidine (TMB) substrate (E102, Bethyl Laboratories) was added for 15 to 20 minutes until positive wells developed a dark blue color.” left out, “To study the effects of sKL on the binding between paracrine FGFs and FGFRs, plates were run as above except coated with paracrine FGFs. Fc-FGFR1 was preincubated with sKL or vehicle for 60 minutes, and then the combination was added to wells and the assay was run as before.” left out

Molecule | peak fluorescence [Ca2+]i transients (F/F0) ([1]; FGF23 10 ng/ml, 2 minutes perfusion) | cell contraction (cell shortening) ([1]; FGF23 alone) | Endocardial % EF (male BALB/c mice) | Endocardial % FAC (male BALB/c mice) | Endocardial Area; s (male BALB/c mice) | Endocardial major; d (male BALB/c mice) | Epicardial Area: s (male BALB/c mice) | Epicardial Area; d (male BALB/c mice) | Heart rate (male BALB/c mice) | LV Mass; d (male BALB/c mice) | T; d (male BALB/c mice) | Endocardial Area; d (male BALB/c mice; i.v. 2 times per day for 5 days, mean ± SEM) | binding of FGFR1c to FGF8b in the presence of sKL (FGF8b binding to FGFR1c) | binding of FLAG-sKL to other coated FGF isoforms [2]
FGF23: recombinant fibroblast growth factor 23 protein from R&D Systems (protein) YPDTSPLLGSNWGSLTHLYTATARTSYHLQIHRDGHVDGTPHQTIYSALMITSEDAGSVVITGAMTRRFLCMDLHGNIFGSLHFSPENCKFRQWTLENGYDVYLSQKHHYLVSLGRAKRIFQPGTNPPPFSQFLARRNEVPLLHFYTVRPRRHTRSAEDPPERDPLNVLKPRPRATPVPVSCSRELPSAEEGGPAASDPLGVLRRGRGDARGGAGGADRCRPFPRFV | increased systolic | increased cell contraction | 61.57 ± 3.48% | 51.38 ± 2.02% | 4.88 ± 0.34 mm² | 7.94 ± 0.09 mm | 19.4 ± 0.46 mm² | 23.1 ± 0.45 mm² | 452.70 ± 4.48 BPM | 122.10 ± 3.05 mg | 0.94 ± 0.02 mm | 9.93 ± 0.39 mm² |  | 
sKL: recombinant soluble α-klotho ectodomain, mouse aa 35-982 and human aa 34-981, FLAG- or Strep/His-tagged, purified from HEK293 cells (protein, left off: small tags and cut ends, recombinant soluble α-klotho ectodomain, mouse aa 35-982 and human aa 34-981, FLAG- or Strep/His-tagged, purified from HEK293 cells) EPGDGAQTWARFSRPPAPEAAGLFQGTFPDGFLWAVGSAAYQTEGGWQQHGKGASIWDTFTHHPLAPPGDSRNASLPLGAPSPLQPATGDVASDSYNNVFRDTEALRELGVTHYRFSISWARVLPNGSAGVPNREGLRYYRRLLERLRELGVQPVVTLYHWDLPQRLQDAYGGWANRALADHFRDYAELCFRHFGGQVKYWITIDNPYVVAWHGYATGRLAPGIRGSPRLGYLVAHNLLLAHAKVWHLYNTSFRPTQGGQVSIALSSHWINPRRMTDHSIKECQKSLDFVLGWFAKPVFIDGDYPESMKNNLSSILPDFTESEKKFIKGTADFFALCFGPTLSFQLLDPHMKFRQLESPNLRQLLSWIDLEFNHPQIFIVENGWFVSGTTKRDDAKYMYYLKKFIMETLKAIKLDGVDVIGYTAWSLMDGFEWHRGYSIRRGLFYVDFLSQDKMLLPKSSALFYQKLIEKNGFPPLPENQPLEGTFPCDFAWGVVDNYIQVDTTLSQFTDLNVYLWDVHHSKRLIKVDGVVTKKRKSYCVDFAAIQPQIALLQEMHVTHFRFSLDWALILPLGNQSQVNHTILQYYRCMASELVRVNITPVVALWQPMAPNQGLPRLLARQGAWENPYTALAFAEYARLCFQELGHHVKLWITMNEPYTRNMTYSAGHNLLKAHALAWHVYNEKFRHAQNGKISIALQADWIEPACPFSQKDKEVAERVLEFDIGWLAEPIFGSGDYPWVMRDWLNQRNNFLLPYFTEDEKKLIQGTFDFLALSHYTTILVDSEKEDPIKYNDYLEVQEMTDITWLNSPSQVAVVPWGLRKVLNWLKFKYGDLPMYIISNGIDDGLHAEDDQLRVYYMQNYINEALKAHILDGINLCGYFAYSFNDRTAPRFGLYRYAADQFEPKASMKHYRKIIDSNGFPGPETLERFCPEEFTVCTECSFFHTRKS |  |  |  |  |  |  |  |  |  |  |  |  | reduced the binding | not observed
